Results on 21 sequences are retold here after the supplement of paper PMC9170038.

In the data set the test system is MS2 coat protein. In words: apparent KD of MS2 coat protein; designed switch direction (-1 OFF switch, 1 ON switch): 1; higher = weaker reporter binding. The procedure, abridged: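 Designed RNA switches were transcribed on Illumina chips by stalled E. coli RNA polymerase and titrated with SNAP-549-labelled MS2 coat protein from 0.7 or 1.5 nM, doubling to 3 µM. Step length ran from 0.8–1.5 h at the lowest concentration to 10–20 min at the highest. The apparent KD is the median over clusters for each design, from curve-fitted normalised cluster fluorescence.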

[1] abbreviates: input ligand: microRNA oligo, concentration not stated.
Where [2] appears, read: Eterna round: R95, input ligand: FMN 200 uM.
Where [3] appears, read: Eterna round: R95, input ligand: microRNA oligo, concentration not stated.
The mark [4] stands for this setting: Eterna round: R95, input ligand: none.

With “GCUAGAAUUAACGCCUACAUGAGGAUCACCCAUGUAUGUAGGCAGGAUAUCGUUUGCUUUGCAAACGAGAAGGGCCUUACUAGC [JL SSNG3 1.11] (Eterna round: R96, puzzle: Same State NG 3)”, the “apparent KD of MS2 coat protein” value (input ligand: FMN 200 uM) was determined as 0.0223 µM, the “apparent KD of MS2 coat protein” value under setting [1] is 0.0533 µM and the “apparent KD of MS2 coat protein” value (input ligand: none) amounted to 0.042 µM.
The corresponding values for “ACAUGAGAGCUAGGAUAUUUUGUACCUACAUGUGACAUGAGGAUCACCCAUGUGGUAAGUAUGAGAAAGAAGGAGCAGAUAUGU [Equivalance 53 - Jieux - Same State NG 2] (Eterna round: R96, puzzle: Same State NG 2)” are 0.0149 µM, 0.0307 µM and 0.038 µM.
For “AGAUCUCCUCUAGGAUAUCCCUAACAUGAGGAUCACCCAUGUCCGAAUUGCAGACAUAGGCCGAGGGAGAAGGAGAAACCGUCG [Eternabot solution 41] (Eterna round: R96, puzzle: Same State NG 2)”, in that order: 0.742 µM, 0.576 µM and 0.856 µM.
“AUAAAACAUGAGGAUCACCCAUGUCUCCAAAGUCGAGGAUAUGGGCAAAUAAUAUAAGAACCAGAAGGCGAAUAAU [SS1 Teenbexe 2] (puzzle: Same State 1)”: the “apparent KD of MS2 coat protein” value is, setting by setting: under setting [2], 0.177 µM; under setting [3], 0.179 µM; under setting [4], 0.374 µM.
In the case of “GCUGGAAACCACAUGAGGAUCACCCAUGUUCCGGAAACGGCGCAGGAUAUCUGUCCGAAAAGGUCAGAGAAGGGUGGAACCAGC [Fiskers NG3ss - 81] (Eterna round: R96, puzzle: Same State NG 3)”, the “apparent KD of MS2 coat protein” value runs as follows: (input ligand: FMN 200 uM) 0.232 µM; under setting [1], 0.136 µM; (input ligand: none) 0.164 µM.
Take “AUGAAGAAUUAAGGAUAUUGAUUACAUAUGUUUAACAUGAGGAUCACCCAUGUGGGUUGCGGUAUCGAGAAGGUAAAUUACUAG [JL SSNG2 1.48] (Eterna round: R96, puzzle: Same State NG 2)”: the “apparent KD of MS2 coat protein” value by setting is: (input ligand: FMN 200 uM) 0.15 µM; under setting [1], 0.0996 µM; (input ligand: none) 0.128 µM.
In the case of “GUAGGACAUGAGGAUCACCCAUGUGGAGAGGAACGAGGAUAUGUGAGAGGAGUGCAGAGGACAGAAGGCGUGGAGG [JR_SS1_Sub027] (puzzle: Same State 1)”, the “apparent KD of MS2 coat protein” value worked out at 0.0426 µM under setting [2], 0.0311 µM under setting [3] and 0.0621 µM under setting [4].
As to “UGUUGUAUUACAGGAUAUCUAGUAUUUUUAUCUAGAGAAGGGUAUUCACAUGAGGAUCACCCAUGUAUAUACGAGGAAGUUGUG [JMF's solution 53] (Eterna round: R96, puzzle: Same State NG 1)”, under setting [1], the “apparent KD of MS2 coat protein” value was found to be 0.0259 µM.
With “UUUAGAUCGCGAGGAUAUCGCGAGGAUCACCCGUGAGAAGGCGCAGAGCCGAGGAUCACCCGGCUGAUCCUGAGAAGGAGGUCU (Eterna round: R96, puzzle: Same State NG 1)”, the “apparent KD of MS2 coat protein” value (input ligand: FMN 200 uM) was found to be 0.0451 µM, the “apparent KD of MS2 coat protein” value under setting [1] is 0.0877 µM and the “apparent KD of MS2 coat protein” value (input ligand: none) amounted to 0.129 µM.
The corresponding values for “GGAGCCGGCACCGAGGAUAUUCAUAUUAAAACAUGAGGAUCACCCAUGUAGGCCAGAAGGCCUUGGGAGAAGGCGGAUCGGCUCG [Xeonanis] (Eterna round: R96, puzzle: Same State 2)” are 0.0332 µM, 0.305 µM and 0.544 µM.
Take “UUAUUCUAUAUAGGAUAUUGAUGCAAUUUACCUCAAGAAGGAUAUACAUGAGGAUCACCCAUGUUGGAUAGGGUUAGUUUGUUU [JR_SSNG1_Sub081] (Eterna round: R96, puzzle: Same State NG 1)”: under setting [1], the “apparent KD of MS2 coat protein” value was 0.056 µM.
Same read-out and setting: the value for “CCUUGUAGCGGAGGAUAUGGGCCUCACUCAGUCAAAGAGUGAGAAACAUGAGGAUCACCCAUGUCCCAGAAGGCCGCUGCUUGG [Estiveveza] (Eterna round: R96, puzzle: Same State NG 2)” was 0.0123 µM.
Consider “ACAUGAGAUAGAGGAUAUGUUGUACCUACAUGUGACAUGAGGAUCACCCAUGUGGUAAGUAUGAUACAGAAGGCUAAGAUAUGU [Equivalance 60 - Jieux - Same State NG 2] (Eterna round: R96, puzzle: Same State NG 2)”, for which the “apparent KD of MS2 coat protein” value (input ligand: FMN 200 uM) came out at 0.0165 µM, the “apparent KD of MS2 coat protein” value under setting [1] was determined as 0.0191 µM and the “apparent KD of MS2 coat protein” value (input ligand: none) was 0.0301 µM.
For “GGACGUCGAUAAUAUAAUCUCACAUGAGGAUCACCCAUGUCACAGGAUAUGGAUCCUAAUUGGAUCCAGAAGGGUGCGACGUCC [Fiskers NG3ss - 35] (Eterna round: R96, puzzle: Same State NG 3)”, in that order: 0.0733 µM, 0.235 µM and 0.373 µM.
As to “AGUAGUUUAACAUGAGGAUCACCCAUGUAUCUAUCUGUAACCUAGGAUAUGGACGUUGUAUUUAACCAGAAGGAGGAUCGUUUA [JR_SSNG3_Sub046] (Eterna round: R96, puzzle: Same State NG 3)”, the “apparent KD of MS2 coat protein” value under setting [1] turned out to be 0.0227 µM.
On to “GCUCGAUGAGCUGUCUACAUGAGGAUCACCCAUGUAGAUGGGCAGGAUAUUUACGUGCUUUAUGUAGAGAAGGGCCCAUCGAGC [SameState NG3 #78] (Eterna round: R96, puzzle: Same State NG 3)”, for which the “apparent KD of MS2 coat protein” value was 0.0155 µM (input ligand: FMN 200 uM), 0.123 µM under setting [1] and 0.169 µM (input ligand: none).
Take “GUUACAUGAGGAUCACCCAUGUAUGUGUGGGAGUAAGUGUCUUAGGAUAUCUAGUAUUUAAUUUGAGAGAAGGAAGAUUGUUGU [JMF's solution 70] (Eterna round: R96, puzzle: Same State NG 3)”: the “apparent KD of MS2 coat protein” value worked out at 0.138 µM (input ligand: FMN 200 uM), 0.0839 µM under setting [1] and 0.147 µM (input ligand: none).
Regarding “CCCGUCUACAGAAAGGUAGAUGGGAAUGUACAUGAGGAUCACCCAUGUUAAUAUGAGUUUGUUGAUAAUUAUGAAUU [Modxample 50 - Jieux - Sensor for bsa-mir-208a] (Eterna round: R96, puzzle: Sensor for hsa-mir-208a)”, the “apparent KD of MS2 coat protein” value is, setting by setting: (input ligand: FMN 200 uM) 0.0197 µM; under setting [1], 0.0189 µM; (input ligand: none) 0.0244 µM.
Take “AAAAGACAAAGAAAACAUGAGGAUCACCCAUGUGGCGUGACACAGGAUAUCCACGCUACAUUGCAGGAGAAGGGUGACAUGCAC [Ensora] (Eterna round: R96, puzzle: Same State NG 3)”: the “apparent KD of MS2 coat protein” value reads like this: (input ligand: FMN 200 uM) 0.484 µM; under setting [1], 0.273 µM; (input ligand: none) 0.383 µM.
Turning to “ACAUGAGAUUUAGGAUAUAUAGUACCUACAUGUGACAUGAGGAUCACCCAUGUGGUAAGUAUGACAUAGAAGGAAAAGAUAUGU [Equivalance 98 - Jieux - Same State NG 2] (Eterna round: R96, puzzle: Same State NG 2)”, the “apparent KD of MS2 coat protein” value under setting [1] worked out at 0.0479 µM.
Regarding “GGCCUGUGUCAAGGAUAUGCUACCGUUUCGGUAGCAGAAGGUGAUCACAUGAGGAUCACCCAUGUUUACGCGAACACGCGCGCC (Eterna round: R96, puzzle: Same State NG 1)”, the “apparent KD of MS2 coat protein” value (input ligand: FMN 200 uM) is 0.193 µM, the “apparent KD of MS2 coat protein” value under setting [1] was determined as 0.0706 µM and the “apparent KD of MS2 coat protein” value (input ligand: none) is 0.0796 µM.
